Ends that are not written are not given here. norbornene = norbornene on aminohexanoic acid N-terminal cap, polymerised by ROMP; Ahx = NCCCCCC(=O)O
Tests used:
[1] = tested on: PC-3 prostate cancer cells; test: PC-3 cell viability / toxicity (CellTiter-Glo); assay type: cell-based; conditions: PC-3, 72 hours treatment, FIG. 2D; read-out: IC50 (concentration of peptide which exhibited 50% cell viability for PC-3)
Procedure: (§1) Cell Culture: PC-3, PC-12, A549 cells were obtained from ATCC; Mouse MycCaP cells were the kind gift of Charles Sawyers (Memorial Sloan-Kettering Cancer Centre). All cells were authenticated and tested as mycoplasma-free. PC-3 and A549 cells were grown in F12K (Gibco) medium; MycCaP cells in DMEM medium (Gibco), all supplemented with 10% heat-inactivated fetal bovine serum (FBS, Gibco). PC-12 cells were grown in F-12K medium (ATCC) with 5% heat-inactivated FBS and 10% heat-inactivated horse serum (Thermo). All cells were cultured in 1% Penicillin-Streptomycin (10,000U/ml, Life Technologies) and 5% CO2 in a humidified incubator at 37° C.
(§2) Cell Proliferation Assays: Cell viability was estimated using the CellTiter-Glo® Luminescent Cell Viability Assay (Promega). […] After 3 to 5 days following the treatment, CellTiter-Glo reagent was added mixed 1:1 vol/vol with fresh media, plates incubated for 10 minutes on a shaking rotator followed by 10 minutes without shaking at room temperature (protected from light using aluminum foil) and luminescence was measured using plate reader (Perkin Elmer Victor 3V).
This example evaluates the toxicity of Myc-targeting PLPs in the PC-3 cancer cell line. • Example 3.1—Generation of Block and Statistical Copolymers. […] Cellular viability was assessed via the Cell Prolferation Assays protocol provided above. • Example 3.2—Results. […]

[2] = target: full length Max (Homo sapiens, UniProt P61244); test: Circular dichroism, binding to Max; conditions: 1 μM PLP plus 5 μM Max
full length Max, sequence (P61244 whole entry): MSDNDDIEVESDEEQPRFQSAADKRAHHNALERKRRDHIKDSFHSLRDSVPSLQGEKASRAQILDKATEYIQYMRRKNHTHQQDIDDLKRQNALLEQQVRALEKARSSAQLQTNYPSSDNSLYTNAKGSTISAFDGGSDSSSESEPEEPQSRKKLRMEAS
Procedure: (§3) Circular Dichroism (CD) Spectroscopy: CD spectra were obtained on a JASCO J-815 spectrometer equipped with a Peltier sample holder for temperature control. Polymer samples were dissolved in buffered solvent to concentrations of approximately 1 μM, and placed into a 1 cm quartz cuvette (Hellma). Protein samples were measured at 5 μM. All samples were equilibrated at room temperature for at least thirty minutes prior to measurement, with mixtures (i.e. protein and polymer combinations) being generally equilibrated for 12 hours prior to measurement. Spectra were obtained using a scan speed of 10 nm/min, using a 1 nm bandwidth, 4 sec response time, and with three accumulations. Background spectra of solvent were obtained prior to measurement of the sample solutions, and subtracted from the sample spectra using JASCO Spectra Analysis. For melting experiments, the temperature was varied between 2° and 91° C. with steps of 1° C./min, while measuring the ellipticity at 222 nm with a 2 nm bandwidth.
(§4) It has been previously reported (Blum et al., Kammeyer et al., and Berger et al., Mussel Adhesive-Inspired Proteomimetic Polymer, Journal of Am. Chem. Soc., 144, 4383-4392 (2022)) that peptide brush polymers with a DP around 15 synthesized in a similar manner maintain payload bioactivity and readily enter cells. As such, initial HYDRAC designs revolved around this molecular size range. […]

[3] = target: T1, b-HLH-LZ domain of Myc (Homo sapiens, UniProt P01106); test: Circular dichroism, dimerization with Myc b-HLH-LZ; assay type: binding; conditions: 1 μM PLP plus 5 μM bHlH
T1 construct: dimerize with either the b-HLH-LZ domain of Myc or full length Max
T1 sequence (P01106 368-454 limits assumed): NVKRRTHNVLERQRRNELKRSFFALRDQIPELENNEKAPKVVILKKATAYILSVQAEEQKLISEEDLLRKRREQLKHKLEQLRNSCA
Procedure: as §3, §4

[4] = target: T2, MYC T58A (Homo sapiens, UniProt P01106, T73A); test: Western blot of MYC T58A in PC-3 MYC^T58A cells; assay type: cell-based; conditions: 6 h; 2.5 and 5 μM HYDRAC, FIG. 31C
T2 construct: expressed in transfected cells
T2 sequence (P01106 16-454 T73A): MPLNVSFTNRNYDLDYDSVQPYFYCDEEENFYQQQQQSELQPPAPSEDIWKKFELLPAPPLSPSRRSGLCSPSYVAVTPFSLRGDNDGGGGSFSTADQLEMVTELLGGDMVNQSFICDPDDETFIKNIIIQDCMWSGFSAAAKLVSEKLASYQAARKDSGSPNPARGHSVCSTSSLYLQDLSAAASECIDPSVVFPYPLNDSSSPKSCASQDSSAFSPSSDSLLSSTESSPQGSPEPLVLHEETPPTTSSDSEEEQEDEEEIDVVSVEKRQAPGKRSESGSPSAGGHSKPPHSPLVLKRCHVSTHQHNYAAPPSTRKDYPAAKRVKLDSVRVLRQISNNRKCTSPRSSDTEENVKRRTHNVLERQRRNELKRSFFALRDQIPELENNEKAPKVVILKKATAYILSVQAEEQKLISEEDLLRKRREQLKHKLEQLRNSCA
Procedure: Western BlotAnalysis: Cells were lysed in RIPA (Sigma) lysis buffer containing 1×Halt™ Protease and Phosphatase Inhibitor Cocktail (ThermoFisher). Protein concentration was measured by Bio-Rad Bradford reagent. Protein samples were prepared by addition of 4×Laemmli Sample buffer (Bio-Rad) and 2-mercaptoethanol (Bio-Rad) and resolved on 4-12% SDS-PAGE (Sodium dodecyl sulfate-polyacrylamide) gels, which were subsequently transferred to PVDF membranes (Bio-Rad) using Trans-Blot Turbo transfer buffer (Bio-Rad) and a Trans-Blot Turbo Transfer System (Bio-Rad). Membranes were blocked for 1 h at room temperature with 5% blotting-grade blocker non-fat dry milk (Bio-Rad), followed by overnight 4° C. incubation with the appropriate primary antibody and 1 h room temperature incubation with an anti-rabbit or anti-mouse IgG (H+L)-HRP conjugate (Bio-Rad) secondary antibody. Blots were imaged using Supersignal West Femto Maximum Sensitivity Substrate detection system (Thermo) and the ChemiDoc Imaging System (Bio-Rad). The following primary antibodies were used: c-Myc (Y69) (Abcam #ab32072), Streptavidin-HRP (PerkinElmer NEL750), GAPDH (Cell Signaling #3683) and Actin (Cell Signaling #5125). Quantification analyses were performed by Biorad ChemiDoc Imager and Bio-Rad Image Lab software. […]

[5] = tested on: PC-12 Pheochromocytoma (which lack the Myc dimerization partner Max) cell lines; test: PC-12 cell viability; assay type: cell-based; conditions: treated for 3 days, FIG. 5A
Procedure: as §1, §2
(§5) This example provides data supporting toxicity of cancer cells in vitro after treatment with Myc-targeted PLPs. […] Cells were treated with PLP 5.2 for 3 days and cellular viability was recorded. […]

[6] = target: T3, Myc protein from PC-3 cell lysates (Homo sapiens, UniProt P01106); test: In vitro pull down assay with biotin-terminated PLPs; assay type: binding; conditions: PC-3 cell lysate, 10 μM or 2 μM biotinylated PLPs, FIG. 5B
T3 construct: Degradation of endogenous Myc protein in PC-3 cells was explored; endogenous in cells; host or cells: PC-3
T3 sequence (P01106 whole entry): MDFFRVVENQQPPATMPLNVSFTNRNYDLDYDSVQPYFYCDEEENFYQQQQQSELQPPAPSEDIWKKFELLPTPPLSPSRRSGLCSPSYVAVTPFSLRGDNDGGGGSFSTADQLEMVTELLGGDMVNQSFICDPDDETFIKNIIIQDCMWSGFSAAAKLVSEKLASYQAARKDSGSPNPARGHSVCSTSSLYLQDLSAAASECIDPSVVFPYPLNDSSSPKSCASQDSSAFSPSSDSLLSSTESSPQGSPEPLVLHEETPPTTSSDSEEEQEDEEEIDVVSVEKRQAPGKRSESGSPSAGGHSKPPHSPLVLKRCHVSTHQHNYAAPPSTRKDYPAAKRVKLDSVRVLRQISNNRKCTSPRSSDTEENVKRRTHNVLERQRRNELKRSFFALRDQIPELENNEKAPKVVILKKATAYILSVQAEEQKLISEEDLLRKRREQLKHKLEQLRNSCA
Procedure: In vitro Pull Down Assay: To confirm PLP direct binding to endogenous Myc protein in cell lysate complex, biotin conjugated PLP was synthesized. Collected PC-3 cell pellet (2 million cells per pulldown condition) was suspended in 300 μL pulldown lysis buffer (pH 7.4 50 mM Tris-HCl, 150 mM NaCl, 1 mM EDTA, 0.1% IGEPAL nonionic detergent+1× Halt protease/phosphatase inhibitor cocktail) and lysed by repeat (3×) freeze-thawing in liquid nitrogen. The lysed cell pellets were spun at 4° C. for 15 minutes at 15,000 rpm on a Eppendorf 5424R centrifuge. The collected supernatants were pre-cleared with Pierce streptavidin magnetic beads (Thermo, 88817) for 1 hr at 4° C. For Examples 7 and 10, around 300 μg was applied to each sample and incubated with 5 μM of HYDRAC, scrambled HYDRAC, 10 μM of H1 homopolymer, scrambled H1 homopolymer or D-Biotin on a rotator over night at 4° C. […]
as §4, with “cells.” for “cells. As such, initial HYDRAC designs revolved around this molecular size range.”
as §5

[7] = target: endogenous Myc protein of PC-3 cells (in PC-3 cell lysate or in the cells) (UniProt P01106 1-454, limits assumed); test: cell-based or functional assay
endogenous Myc protein of PC-3 cells (in PC-3 cell lysate or in the cells), sequence (P01106 whole entry): as above

With “NELKRAFAALRDQI-NH2 [unpolymerized H1 peptide, NELKRAFAALRDQI, reference compound]” as the molecule, how does the IC50 [1] read?
The IC50 was 700 µM.

Which “Max binding (CD)” value [2] does the source give for “H16-stat-RRRG7 (peptide 1 NELKRAFAALRDQI) [H1-R PLP]” here?
Its value is “limited Max/HYDRAC binding”.

What about the “heterodimerization with Myc b-HLH-LZ (CD)” value [3] of the same molecule?
The value was “selective Myc/HYDRAC heterodimerization in the low micromolar range”.

Cn1nc(C(F)(F)F)cc1-c1ccc(OCc2ccc(Cl)cc2)c(-c2ccc(Cl)c(C(F)(F)F)c2)c1O [MYCi975] was tested. Which “MYC^T58A protein level” value [4] did it give?
Its value is “only minor changes in mutant MYC levels”.

Which IC50 [5] does the source give for “H17-stat-RRRG6 (peptide 1 NELKRAFAALRDQI) [PLP 5.2]” here?
Its IC50 is 10.2 µM.

What about the Myc pull down [6] of the same molecule?
The Myc pull down was “capable of direct endogenous binding to Myc protein”.

B1: PLP 5.2, H17-stat-RRRG6 (Example 9.4, FIG. 5A) (other)
peptide 1: {norbornene-Ahx}-NELKRAFAALRDQI-NH2
peptide 2: {norbornene-Ahx}-RRRG-NH2
modifications: also: polymerised through N-terminal norbornene by ROMP into polymer backbone, statistical copolymer of both peptides
B1 was tested. Which “IC50 of PC-3 cell viability after 3 days of treatment (CTGlo)” value [7] did it give?
The value was 0.49 µM.
